Experimental data reported in PMC6739470, “Modular Protein Ligation: A New Paradigm as a Reagent Platform for Pre-Clinical Drug Discovery” (Scientific Reports, 2019).

Target: the molecule itself
Test: SEC; Superdex 200 column, final labeled products, compared with MW standards; no aggregate peak observed

B1: sCD73flagACK-biotin (soluble CD73 truncated after S552, C-terminal flag-Ala, ligated to C[K-PEG2-Biotin]) (enzyme, human, UniProt P21589 27-552, looked up)
chain: WELTILHTNDVHSRLEQTSEDSSKCVNASRCMGGVARLFTKVQQIRRAEPNVLLLDAGDQYQGTIWFTVYKGAEVAHFMNALRYDAMALGNHEFDNGVEGLIEPLLKEAKFPILSANIKAKGPLASQISGLYLPYKVLPVGDEVVGIVGYTSKETPFLSNPGTNLVFEDEITALQPEVDKLKTLNVNKIIALGHSGFEMDKLIAQKVRGVDVVVGGHSNTFLYTGNPPSKEVPAGKYPFIVTSDDGRKVPVVQAYAFGKYLGYLKIEFDERGNVISSHGNPILLNSSIPEDPSIKADINKWRIKLDNYSTQELGKTIVYLDGSSQSCRFRECNMGNLICDAMINNNLRHTDEMFWNHVSMCILNGGGIRSPIDERNNGTITWENLAAVLPFGGTFDLVQLKGSTLKKAFEHSVHRYGQSTGEFLQVGGIHVVYDLSRKPGDRVVKLDVLCTKCRVPSYDPLKMDEVYKVILPNFLANGGDGFQMIKDELLRHDSGDQDINVVSTYISKMKVIYPAVEGRIKFSTGS
modifications: C-terminal Ala-Cys-Lys after the flag tag (Ala from the construct, Cys-Lys dipeptide added by expressed protein ligation); PEG2-biotin on the epsilon-amino group of the lysine
notes: soluble CD73 (5'-nucleotidase), truncated after residue S552; Uniprot P21589; Chain order: CD73(to S552)-flag-Ala-Cys-Lys(PEG2-biotin); Secreted protein; also called CD73 labeled with CK-biotin; sCD73flagACK-label; source: HEK293 cells transduced with BacMam, secreted as GyrA-CBD fusion; captured on chitin resin, ligated in 36 mM MESNA, sized on Superdex 200; not shown: FLAG, C-terminal, kept
- stoichiometry N: 2

B2: sCD73-flag-CK-fluorescein (soluble CD73 truncated after S552, C-terminal flag-Ala, ligated to C[K-fluorescein]) (enzyme, human, UniProt P21589 27-552, looked up)
chain: B1 chain
modifications: C-terminal Ala-Cys-Lys after the flag tag (Ala from the construct, Cys-Lys dipeptide added by expressed protein ligation); fluorescein on the epsilon-amino group of the lysine
notes: soluble CD73 (5'-nucleotidase), truncated after residue S552; Uniprot P21589; Chain order: CD73(to S552)-flag-Ala-Cys-Lys(fluorescein); Secreted protein; also called CD73 EPL fluorescein labeled; CD73 labeled with CK-fluorescein; source: HEK293 cells transduced with BacMam, secreted as GyrA-CBD fusion; captured on chitin resin, ligated in 36 mM MESNA, sized on Superdex 200; not shown: FLAG, …
- stoichiometry N: 2
